T1: KChAP (K+ Channel Associated Protein), full length, in pGAD10 (rat, UniProt O70260 55-628)
T1 construct: Yeast two-hybrid construct; also called full length KChAP
T1 sequence: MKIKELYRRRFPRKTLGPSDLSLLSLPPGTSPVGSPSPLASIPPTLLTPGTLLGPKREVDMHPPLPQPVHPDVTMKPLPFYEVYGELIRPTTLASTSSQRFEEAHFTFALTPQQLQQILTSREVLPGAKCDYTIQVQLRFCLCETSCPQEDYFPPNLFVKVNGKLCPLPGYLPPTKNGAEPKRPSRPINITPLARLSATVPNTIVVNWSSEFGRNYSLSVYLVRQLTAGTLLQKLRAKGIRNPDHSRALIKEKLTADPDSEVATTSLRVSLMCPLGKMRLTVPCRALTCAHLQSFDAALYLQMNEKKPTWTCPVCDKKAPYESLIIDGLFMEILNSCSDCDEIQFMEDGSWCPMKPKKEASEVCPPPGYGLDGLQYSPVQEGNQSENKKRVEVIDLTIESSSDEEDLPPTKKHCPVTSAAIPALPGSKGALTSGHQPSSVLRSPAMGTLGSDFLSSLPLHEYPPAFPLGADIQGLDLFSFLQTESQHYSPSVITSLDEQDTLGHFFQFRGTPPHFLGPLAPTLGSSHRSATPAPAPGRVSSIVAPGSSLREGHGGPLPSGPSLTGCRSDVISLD

B1: HERG N-terminus (amino acids 1-396), in pGBT9 (other, UniProt P04386 1-147, looked up)
chain: MKLLSSIEQACDICRLKKLKCSKEKPKCAKCLKNNWECRYSPKTKRSPLTRAHLTEVESRLERLEQLFLLIFPREDLDMILKMDSLQDIKALLTGLFVQDNVNKDAVTDRLASVETDMPLTLRQHRISATSSSEESSNKGQRQLTVSMPVRRGHVAPQNTFLDTIIRKFEGQSRKFIIANARVENCAVIYCNDGFCELCGYSRAEVMQRPCTCDFLHGPRTQRRAAAQIAQALLGAEERKVEIAFYRKDGSCFLCLVDVVPVKNEDGAVIMFILNFEVVMEKDMVGSPAHDTNHRGPPTSWLAPGRAKTFRLKLPALLALTARESSVRSGGAGGAGAPGAVVVDVDLTPAAPSSESLALDEVTAMDNHVAGLGPAEERRALVGPGSPPRSAPGQLPSPRAHSLNPDASGSSCSLARTRSRESCASVRRASSADDIEAMRAGVLPPPPRHASTGAMHPLRSGLLNSTSDSDLVRYRTISKIPQITLNFVDLKGDPFLASPTSDREIIAPKIKERTHNVTEKVTQVLSLGADVLPEYKLQAPRIH
notes: also called N-terminus of the delayed rectifier K+ channel, HERG

Experiments:
Assay in all cases: yeast two-hybrid (Y190, pGAD10 x pGBT9), β-galactosidase filter assay
[1] = target: T2, human Gu binding protein (GBP), in pGAD10 (human, UniProt O75925 55-651, limits assumed)
T2 construct: Comparison protein, about 50% homologous to KChAP
Description: (§1) In the indirect procedure, the yeast Matchmaker Two-Hybrid System Clontech and cDNA molecules encoding KChAP and KChAP-Y were used. The binding specificity between full length KChAP or KChAP-Y and the following Kvα, Kvβ and other K+ channel subunit fragments were determined: Kvβ1.2 (amino acids 1-408), Kvβ1.2-N terminus (amino acids 1-79), Kvβ1C (carboxyl terminal 329 amino acids of the Kvβ1 subfamily), Kvβ2 (amino acids 1-367); Kv1.1-N terminus (amino acids 1-168), Kv1.2 N-terminus (amino acids 1-124), Kv1.4 N-terminus (amino acids 1-305), Kv1.4 C-terminus (amino acids 562-654), Kv1.5 N-terminus (amino acids 1-248), Kv2.1 N-terminus (amino acids 1-168), Kv2.2 N-terminus (amino acids 1-185), Kv6.1 N-terminus (amino acids 1-209), Kir2.2 N-terminus (amino acids 1-86), and HERG N-terminus (amino acids 1-396). The ability of human Gα-binding protein (GBP) to bind to these fragments was also determined.
(§2) Protein-protein interactions were tested by co-transformation of the yeast host strain Y190 with a pGAD10 plasmid containing inserts encoding KChAP-Y, KChAP or GBP with a pGBT9 plasmid containing an insert encoding one of the K+ channel protein fragments. pGBT9 is a GAL4 DNA binding domain [BD] vector. Co-transformants were plated on medium lacking trp and leu and grown for 2.5 days at 30° C. Yeast colonies were lifted to paper filters and assayed for β-galactosidase activity. Appearance of blue color within 8 hours was scored as a positive interaction between the proteins encoded by the two plasmids.

[2] = target: T1, KChAP (K+ Channel Associated Protein), …
Description: as §1, §2

[3] = target: B1
Description: as §1, §2

T2 sequence (O75925 55-651 limits assumed): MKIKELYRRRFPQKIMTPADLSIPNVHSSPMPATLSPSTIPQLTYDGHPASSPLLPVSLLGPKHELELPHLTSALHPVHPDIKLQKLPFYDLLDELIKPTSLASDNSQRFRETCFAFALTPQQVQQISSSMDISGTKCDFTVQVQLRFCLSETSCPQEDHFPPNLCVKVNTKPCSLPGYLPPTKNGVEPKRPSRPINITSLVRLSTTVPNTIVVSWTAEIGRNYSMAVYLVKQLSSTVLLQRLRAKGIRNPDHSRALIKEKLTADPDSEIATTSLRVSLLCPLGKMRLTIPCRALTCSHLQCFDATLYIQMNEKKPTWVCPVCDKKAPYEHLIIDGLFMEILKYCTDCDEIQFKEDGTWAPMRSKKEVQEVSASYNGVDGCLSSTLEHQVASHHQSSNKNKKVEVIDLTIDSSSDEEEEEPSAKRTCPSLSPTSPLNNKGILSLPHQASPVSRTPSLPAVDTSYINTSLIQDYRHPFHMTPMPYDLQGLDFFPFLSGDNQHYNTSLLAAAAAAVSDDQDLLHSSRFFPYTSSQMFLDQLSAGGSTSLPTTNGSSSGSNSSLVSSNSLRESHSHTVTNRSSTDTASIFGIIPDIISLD

Row | Binder | binding result [1] | binding result [2] | binding result [3]
1 | Kv2.1 N-terminus (amino acids 1-168), in pGBT9 (other, UniProt P04386 1-147, looked up) MKLLSSIEQACDICRLKKLKCSKEKPKCAKCLKNNWECRYSPKTKRSPLTRAHLTEVESRLERLEQLFLLIFPREDLDMILKMDSLQDIKALLTGLFVQDNVNKDAVTDRLASVETDMPLTLRQHRISATSSSEESSNKGQRQLTVSMPAGMTKHGSRSTSSLPPEPMEIVRSKACSRRVRLNVGGLAHEVLWRTLDRLPRTRLGKLRDCNTHDSLLQVCDDYSLEDNEYFFDRHPGAFTSILNFYRTGRLHMMEEMCALSFSQELDYWGIDEIYLESCCQARYHQKKEQMNEELKREAETLREREGEEFDNTCC | no binding | – | –
2 | B1 | no binding | no binding | –
3 | Kvβ1C (carboxyl terminal 329 amino acids of the Kvβ1 subfamily), in pGBT9 (other, UniProt P04386 1-147, looked up, also called C-terminus of Kvβ1) MKLLSSIEQACDICRLKKLKCSKEKPKCAKCLKNNWECRYSPKTKRSPLTRAHLTEVESRLERLEQLFLLIFPREDLDMILKMDSLQDIKALLTGLFVQDNVNKDAVTDRLASVETDMPLTLRQHRISATSSSEESSNKGQRQLTVSHRNLGKSGLRVSCLGLGTWVTFGGQISDEVAERLMTIAYESGVNLFDTAEVYAAGKAEVILGSIIKKKGWRRSSLVITTKLYWGGKAETERGLSRKHIIEGLKGSLQRLQLEYVDVVFANRPDSNTPMEEIVRAMTHVINQGMAMYWGTSRWSAMEIMEAYSVARQFNMIPPVCEQAEYHLFQREKVEVQLPELYHKIGVGAMTWSPLACGIISGKYGNGVPESSRASLKCYQWLKERIVSEEGRKQQNKLKDLSPIAERLGCTLPQLAVAWCLRNEGVSSVLLGSSTPEQLIENLGAIQVLPKMTSHVVNEIDNILRNKPYSKKDYRS | no binding | – | –
4 | KChAP-Y (partial clone of KChAP from W310 to the C-terminus), in pGAD10 (other, not shown: large carriers, also called KChAP-Y plasmid) WTCPVCDKKAPYESLIIDGLFMEILNSCSDCDEIQFMEDGSWCPMKPKKEASEVCPPPGYGLDGLQYSPVQEGNQSENKKRVEVIDLTIESSSDEEDLPPTKKHCPVTSAAIPALPGSKGALTSGHQPSSVLRSPAMGTLGSDFLSSLPLHEYPPAFPLGADIQGLDLFSFLQTESQHYSPSVITSLDEQDTLGHFFQFRGTPPHFLGPLAPTLGSSHRSATPAPAPGRVSSIVAPGSSLREGHGGPLPSGPSLTGCRSDVISLD | – | – | no binding
